Data taken from the supplement of paper PMC10567573.

B1: DYRK1B (parent)
chain: YQGPGTRRLQEVLGVQTGGPGGRR
B2: NET1 (parent)
chain: IKRTIRVLDVNNQSFREQEEPSNK

Variants of: B1
Assay: protein stability index of a GFP-peptide fusion (GPS, HEK-293T) (PSI 1-6); higher = more stable
Conditions: c terminus: a fixed tail appended
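Also: lentivirally expressed fusions sorted by FACS into six bins by GFP to DsRed ratio, PSI derived from sequencing read proportions per bin multiplied by bin number.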

| Variant | protein stability index |
| --- | --- |
| R24S | 3.45 |
| R24T | 3.02 |
| R24V | 3.54 |
| R24W | 2.73 |
| R24Y | 3.24 |

Variants of: B2
Assay: as above
Conditions: c terminus: a fixed tail appended

| Variant | protein stability index |
| --- | --- |
| I1A | 3.82 |
| I1C | 4.76 |
| I1D | 4.58 |
| I1E | 4.07 |
| I1F | 4.03 |
| I1G | 3.67 |
| I1H | 4.81 |
| I1K | 4.14 |
| I1L | 3.27 |
| I1M | 3.63 |
| I1N | 3.61 |
| I1P | 3.94 |
| I1Q | 3.69 |
| I1R | 3.73 |
| I1S | 3.99 |
| I1T | 4.49 |
| I1V | 3.54 |
| I1W | 3.45 |
| I1Y | 4.1 |
| K2A | 3.74 |
| K2C | 4.05 |
| K2D | 4.83 |
| K2E | 4.01 |
| K2F | 3.04 |

| Variant | protein stability index |
| --- | --- |
| K2G | 4.51 |
| K2H | 4.01 |
| K2I | 3.05 |
| K2L | 3.72 |
| K2M | 3.75 |
| K2N | 4.34 |
| K2P | 4.47 |
| K2Q | 4.63 |
| K2R | 2.93 |
| K2S | 3.29 |
| K2T | 4.8 |
| K2V | 3.33 |
| K2W | 3.11 |
| K2Y | 2.6 |
| R3A | 3.48 |
| R3C | 2.69 |
| R3D | 4.81 |
| R3E | 4.92 |
| R3F | 1.75 |
| R3G | 4.1 |
| R3H | 4.39 |
| R3I | 1.37 |
| R3K | 3.93 |
| R3L | 1.9 |

| Variant | protein stability index |
| --- | --- |
| R3M | 2.08 |
| R3N | 4.86 |
| R3P | 4.57 |
| R3Q | 4.44 |
| R3S | 4.71 |
| R3T | 4.02 |
| R3V | 1.73 |
| R3W | 1.49 |
| R3Y | 2.19 |
| T4C | 3.51 |
| T4D | 4.51 |
| T4E | 4.96 |
| T4F | 2.88 |
| T4G | 3.41 |
| T4H | 3.89 |
| T4I | 1.79 |
| T4K | 3.75 |
| T4L | 2.59 |
| T4M | 3.3 |
| T4N | 4.13 |
| T4P | 3.89 |
| T4Q | 3.86 |
| T4R | 3.99 |
| T4S | 4.09 |

| Variant | protein stability index |
| --- | --- |
| T4V | 2.51 |
| T4W | 2.38 |
| T4Y | 3.09 |
| I5A | 4.53 |
| I5C | 4.41 |
| I5D | 4.91 |
| I5E | 5.05 |
| I5F | 3.39 |
| I5H | 4.69 |
| I5K | 4.75 |
| I5L | 2.94 |
| I5M | 2.55 |
| I5N | 4.08 |
| I5P | 3.78 |
| I5Q | 5.04 |
| I5R | 4.82 |
| I5S | 4.56 |
| I5T | 5.1 |
| I5W | 3.31 |
| I5Y | 3.95 |
| R6A | 2.88 |
| R6C | 3.35 |
| R6D | 4.77 |
| R6E | 4.65 |

| Variant | protein stability index |
| --- | --- |
| R6F | 2.68 |
| R6G | 4.51 |
| R6H | 4.45 |
| R6I | 1.99 |
| R6K | 4.04 |
| R6L | 2.63 |
| R6M | 3.32 |
| R6N | 3.62 |
| R6P | 4.87 |
| R6Q | 4.16 |
| R6S | 4.23 |
| R6T | 3.92 |
| R6V | 2.77 |
| R6W | 2.42 |
| R6Y | 2.35 |
| V7A | 3.3 |
| V7C | 3.62 |
| V7D | 4.53 |
| V7E | 3.74 |
| V7F | 3.35 |
| V7G | 3.92 |
| V7H | 4.25 |
| V7I | 4.02 |
| V7K | 4.37 |

| Variant | protein stability index |
| --- | --- |
| V7L | 3.46 |
| V7M | 3.27 |
| V7N | 4.5 |
| V7P | 4.22 |
| V7Q | 5.07 |
| V7R | 3.71 |
| V7S | 4.28 |
| V7T | 4.21 |
| V7W | 2.41 |
| V7Y | 3.04 |
| L8A | 4.45 |
| L8C | 4.93 |
| L8D | 4.92 |
| L8E | 5.07 |
| L8F | 3.83 |
| L8G | 4.99 |
| L8H | 4.93 |
| L8I | 2.96 |
| L8K | 4.46 |
| L8M | 3.75 |
| L8N | 4.57 |
| L8P | 4.93 |
| L8Q | 4.41 |
| L8R | 4.68 |

| Variant | protein stability index |
| --- | --- |
| L8S | 4.44 |
| L8T | 4.72 |
| L8V | 3.94 |
| L8W | 3.39 |
| L8Y | 3.96 |
| D9A | 3.31 |
| D9C | 2.94 |
| D9E | 3.91 |
| D9F | 2.24 |
| D9G | 3.7 |
| D9H | 4.23 |
| D9I | 1.58 |
| D9K | 4.44 |
| D9L | 1.77 |
| D9M | 1.91 |
| D9N | 4.11 |
| D9P | 4.36 |
| D9Q | 3.26 |
